doi:10.64898/2025.12.30.697126

Biological target: SUMO-SRCAP_(521-569) (human)
Test: ITC

Chain of SUMO-SRCAP_(521-569) (human) (Q6ZRS2 521-569): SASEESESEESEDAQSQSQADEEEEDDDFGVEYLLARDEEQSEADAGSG

Kd: 256 nM
Substance: H2A.Z/H2B dimer, wild type (from UniProt P0C0S5 1-128; P06899 1-126) (complex)
